What was measured:
Assay in all cases: SPR; cytokine immobilised on ProteOn GLH sensor chip by amine coupling (9,000-14,000 RU); S100P (wild type or mutant) as analyte, 62 nM-16 µM; 25 °C; 10 mM HEPES, 150 mM NaCl, 1 mM CaCl2, 0.05% TWEEN 20, pH 7.4; heterogeneous ligand model (two ligand populations), one-site model for IL-13; values averaged over analyte concentrations (n = 3-5)
Conditions in all cases: both partners purified
[1] = target: T1, Granulocyte-macrophage colony-stimulating factor (human, UniProt P04141 18-144)
T1 construct: Granulocyte-macrophage colony-stimulating factor, human, UniProt P04141; see the manufacturer's catalogue number; also called GM-CSF; source: bought: PeproTech (source E. coli)

Growth hormone variant = target: T2, Growth hormone variant (human, UniProt P01242 27-217)
T2 construct: Growth hormone variant, human, UniProt P01242; see the manufacturer's catalogue number; also called GH-V; source: bought: R&D Systems (source E. coli)

Interleukin-27 = target: T3, Interleukin-27 (human, UniProt Q8NEV9 29-243; Q14213 21-229)
T3 construct: the chain used for the SCOP family assignment; also called IL-27; source: bought: PeproTech (source HEK293)
T3 sequence (looked up) 1: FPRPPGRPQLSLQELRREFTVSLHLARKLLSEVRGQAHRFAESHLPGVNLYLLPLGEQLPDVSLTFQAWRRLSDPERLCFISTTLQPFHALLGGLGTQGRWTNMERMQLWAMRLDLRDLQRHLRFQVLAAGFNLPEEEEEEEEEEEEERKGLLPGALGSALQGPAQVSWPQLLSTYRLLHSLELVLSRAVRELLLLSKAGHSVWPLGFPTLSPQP
T3 sequence (looked up) 2: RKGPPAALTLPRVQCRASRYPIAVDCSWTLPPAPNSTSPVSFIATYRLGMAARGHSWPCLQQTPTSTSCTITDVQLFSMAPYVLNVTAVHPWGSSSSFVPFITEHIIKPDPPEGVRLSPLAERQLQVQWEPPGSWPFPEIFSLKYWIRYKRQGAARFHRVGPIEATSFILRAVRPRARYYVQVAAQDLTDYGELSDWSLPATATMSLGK

Interleukin-20 = target: T4, Interleukin-20 (human, UniProt Q9NYY1 25-176)
T4 construct: Interleukin-20, human, UniProt Q9NYY1; see the manufacturer's catalogue number; also called IL-20; source: bought: PeproTech (source E. coli)
T4 sequence (looked up): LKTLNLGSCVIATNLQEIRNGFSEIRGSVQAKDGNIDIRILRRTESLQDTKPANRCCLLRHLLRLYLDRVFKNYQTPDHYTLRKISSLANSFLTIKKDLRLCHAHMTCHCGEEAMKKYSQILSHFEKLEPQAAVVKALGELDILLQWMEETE

[2] = target: T5, Granulocyte colony-stimulating factor (human, UniProt P09919-2 31-204)
T5 construct: Granulocyte colony-stimulating factor, human, UniProt P09919; No catalogue number (n/a); also called G-CSF; source: bought: Pharmstandard (Russia) (source E. coli)
T5 sequence (looked up): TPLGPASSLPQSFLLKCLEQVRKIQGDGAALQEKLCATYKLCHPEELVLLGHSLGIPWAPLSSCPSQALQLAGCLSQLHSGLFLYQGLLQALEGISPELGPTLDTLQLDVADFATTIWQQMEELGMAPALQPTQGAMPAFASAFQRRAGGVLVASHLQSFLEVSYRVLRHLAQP

Interleukin-21 = target: T6, Interleukin-21 (human, UniProt Q9HBE4 25-162)
T6 construct: Interleukin-21, human, UniProt Q9HBE4; see the manufacturer's catalogue number; also called IL-21; source: bought: PeproTech (source E. coli)
T6 sequence (Q9HBE4 25-162): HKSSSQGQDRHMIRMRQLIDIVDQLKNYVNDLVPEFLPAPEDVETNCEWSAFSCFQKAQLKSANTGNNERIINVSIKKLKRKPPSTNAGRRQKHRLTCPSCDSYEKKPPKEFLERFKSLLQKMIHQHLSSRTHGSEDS

T1 sequence (P04141 18-144): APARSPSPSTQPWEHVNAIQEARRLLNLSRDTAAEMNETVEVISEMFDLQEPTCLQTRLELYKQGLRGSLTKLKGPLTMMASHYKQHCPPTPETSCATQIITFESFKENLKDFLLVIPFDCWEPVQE
T2 sequence (P01242 27-217, change not shown): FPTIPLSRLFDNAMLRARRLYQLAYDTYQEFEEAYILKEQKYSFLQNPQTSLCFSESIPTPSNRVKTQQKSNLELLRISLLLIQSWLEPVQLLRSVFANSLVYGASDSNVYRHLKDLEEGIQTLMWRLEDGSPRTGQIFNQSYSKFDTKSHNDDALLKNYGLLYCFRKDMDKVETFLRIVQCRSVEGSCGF

Kd1 (heterogeneous ligand model, population 1) [1]: 245 nM
Kd2 (heterogeneous ligand model, population 2) [1]: 450 nM
kd1 (heterogeneous ligand model, population 1) [1]: 0.00113 s⁻¹
kd2 (heterogeneous ligand model, population 2) [1]: 0.0672 s⁻¹
Kd1 (heterogeneous ligand model, population 1) (Growth hormone variant): 1.04 µM
Kd2 (heterogeneous ligand model, population 2) (Growth hormone variant): 2.73 µM
kd1 (heterogeneous ligand model, population 1) (Growth hormone variant): 0.00177 s⁻¹
kd2 (heterogeneous ligand model, population 2) (Growth hormone variant): 0.0181 s⁻¹
Kd1 (heterogeneous ligand model, population 1) (Interleukin-27): 859 nM
Kd2 (heterogeneous ligand model, population 2) (Interleukin-27): 1.69 µM
kd1 (heterogeneous ligand model, population 1) (Interleukin-27): 0.00994 s⁻¹
kd2 (heterogeneous ligand model, population 2) (Interleukin-27): 0.000357 s⁻¹
Kd1 (heterogeneous ligand model, population 1) (Interleukin-20): 403 nM
Kd2 (heterogeneous ligand model, population 2) (Interleukin-20): 537 nM
kd1 (heterogeneous ligand model, population 1) (Interleukin-20): 0.000442 s⁻¹
kd2 (heterogeneous ligand model, population 2) (Interleukin-20): 0.0246 s⁻¹
Kd1 (heterogeneous ligand model, population 1) [2]: 213 nM
Kd2 (heterogeneous ligand model, population 2) [2]: 854 nM
kd1 (heterogeneous ligand model, population 1) [2]: 0.000315 s⁻¹
kd2 (heterogeneous ligand model, population 2) [2]: 0.0154 s⁻¹
Kd1 (heterogeneous ligand model, population 1) (Interleukin-21): 272 nM
Kd2 (heterogeneous ligand model, population 2) (Interleukin-21): 285 nM
kd1 (heterogeneous ligand model, population 1) (Interleukin-21): 0.000928 s⁻¹
kd2 (heterogeneous ligand model, population 2) (Interleukin-21): 0.0126 s⁻¹
B1: Human S100P protein (recombinant, Ca^2+-loaded) (natural protein)
chain: MTELETAMGMIIDVFSRYSGSEGSTQTLTKGELKVLMEKELPGFLQSGKDKDAVDKLLKDLDANGDAQVDFSEFIVFVAAITSACHKYFEKAGLK
notes: S100P protein, human, recombinant; probably the whole 95-residue protein (surmise); also called wild-type S100P; WT S100P; source: E. coli, prepared as previously described [28]
